Paper PMC12525494

Assays:
[1] = biological target: ST2 receptor on Raw 264.7 cells (mouse (endogenous in Raw 264.7)) (UniProt P14719)
[2] = biological target: ST2 receptor on Raw 264.7 cells (mouse (endogenous in Raw 264.7)) (UniProt P14719); remark: listed apart in the source

Chain of UniProt P14719 (P14719 27-567): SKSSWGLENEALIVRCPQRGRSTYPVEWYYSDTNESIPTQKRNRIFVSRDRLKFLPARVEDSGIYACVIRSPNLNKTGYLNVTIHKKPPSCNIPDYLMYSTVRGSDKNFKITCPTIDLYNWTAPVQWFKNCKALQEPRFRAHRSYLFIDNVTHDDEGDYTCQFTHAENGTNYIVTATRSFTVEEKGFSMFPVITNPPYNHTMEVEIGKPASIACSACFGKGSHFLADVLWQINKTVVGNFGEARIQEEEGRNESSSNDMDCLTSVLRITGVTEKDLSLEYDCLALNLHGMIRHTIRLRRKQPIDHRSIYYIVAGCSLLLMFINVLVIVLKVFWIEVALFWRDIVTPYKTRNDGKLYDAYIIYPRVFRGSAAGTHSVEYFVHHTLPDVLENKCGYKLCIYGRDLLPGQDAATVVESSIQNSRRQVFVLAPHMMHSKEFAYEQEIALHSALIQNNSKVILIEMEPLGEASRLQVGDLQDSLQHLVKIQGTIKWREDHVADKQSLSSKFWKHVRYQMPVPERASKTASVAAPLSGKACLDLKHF

Substance: immunotoxin IL-33αS (murine IL-33 fused to the ribotoxin α-sarcin) (from UniProt P00655 28-177)
- Viability (%) on Raw 264.7 cell line, 1 µM protein, 72 h [1]: 40%
- MTT viability of Raw 264.7 cells, IC50 at 72 h [2]: 300 nM
